Like-named read-outs stand apart in the source and are kept apart here.
Assays:
[1] = target: T1, human IL-7Rα (IL-7R) on human PBMCs / monocytes (human, UniProt P16871 21-459); assay: cell-based or functional assay
T1 chain: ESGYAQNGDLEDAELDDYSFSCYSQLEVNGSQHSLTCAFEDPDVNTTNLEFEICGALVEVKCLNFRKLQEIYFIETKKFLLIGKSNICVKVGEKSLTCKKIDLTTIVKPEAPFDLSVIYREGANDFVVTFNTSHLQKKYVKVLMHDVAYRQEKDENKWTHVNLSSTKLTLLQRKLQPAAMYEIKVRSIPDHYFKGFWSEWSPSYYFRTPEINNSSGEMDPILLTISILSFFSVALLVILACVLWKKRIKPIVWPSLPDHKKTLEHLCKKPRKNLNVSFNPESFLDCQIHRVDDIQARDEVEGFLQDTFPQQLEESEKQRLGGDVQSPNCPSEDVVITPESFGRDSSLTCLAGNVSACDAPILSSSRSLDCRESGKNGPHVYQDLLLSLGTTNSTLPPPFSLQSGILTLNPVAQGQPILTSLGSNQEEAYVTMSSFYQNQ

[2] = target: T1, human IL-7Rα (IL-7R) on human PBMCs / …; assay: cell-based or functional assay

B1: V7R-2E9 (VHH, not shown: small tags and cut ends)
VHH: EVQLVESGGGLVQAGGSLRLSCESSISTFSSDAMGWFRQAPGKEREFLAAIGWSGAVTHYSDSVQGRFTISRDNAKNTVYLQMNSLKSEDTGRYYCAEDYDTDVWQYWGQGTQVTVSS
IL-7 induced pSTAT5 in hPBMCs EC50 [1]: 2.86 nM
IL-7 induced pSTAT5 in hPBMCs EC50 [2]: 2.86 nM
